B1: Peptide A2 (peptide)
peptide: AAGSHPSRWAGMGRRLLLRS
B2: Peptide B34 (peptide)
peptide: PRSTPSLTTKAVLLVRKFQNA
notes: alanine-scan variant of the domain II 21-mer
B3: Peptide B35 (peptide)
peptide: PRSTPSLTTKAVLLVRKFQAS
notes: as for B2
B4: Peptide B36 (peptide)
peptide: PRSTPSLTTKAVLLVRKFANS
notes: as for B2
B5: Peptide B37 (peptide)
peptide: PRSTPSLTTKAVLLVRKAQNS
notes: as for B2
B6: Peptide B38 (peptide)
peptide: PRSTPSLTTKAVLLVRAFQNS
notes: as for B2
B7: Peptide B39 (peptide)
peptide: PRSTPSLTTKAVLLVAKFQNS
notes: as for B2
B8: Peptide B40 (peptide)
peptide: PRSTPSLTTKAVLLARKFQNS
notes: as for B2
B9: Peptide B41 (peptide)
peptide: PRSTPSLTTKAVLAVRKFQNS
notes: as for B2
B10: Peptide B42 (peptide)
peptide: PRSTPSLTTKAVALVRKFQNS
notes: as for B2
B11: Peptide B43 (peptide)
peptide: PRSTPSLTTKAALLVRKFQNS
notes: as for B2
B12: Peptide B44 (peptide)
peptide: PRSTPSLTTAAVLLVRKFQNS
notes: as for B2
B13: Peptide B45 (peptide)
peptide: PRSTPSLTAKAVLLVRKFQNS
notes: as for B2
B14: Peptide B46 (peptide)
peptide: PRSTPSLATKAVLLVRKFQNS
notes: as for B2
B15: Peptide B47 (peptide)
peptide: PRSTPSATTKAVLLVRKFQNS
notes: as for B2
B16: Peptide C2 (peptide)
peptide: SSFYRLRFELRYRAERSKTF
B17: Peptide C3 (peptide)
peptide: SSFYRLRFELRYRAERSKT
B18: Peptide C4 (peptide)
peptide: SSFYRLRFELRYRAERSK
B19: Peptide C5 (peptide)
peptide: SSFYRLRFELRYRAERS
B20: Peptide C6 (peptide)
peptide: SSFYRLRFELRYRAER
B21: Peptide C7 (peptide)
peptide: SSFYRLRFELRYRAE
B22: Peptide A3 (peptide)
peptide: AAGSHPSRWAGMGRRLLLR
B23: Peptide C8 (peptide)
peptide: SSFYRLRFELRYRA
B24: Peptide C9 (peptide)
peptide: SSFYRLRFELRYR
B25: Peptide C10 (peptide)
peptide: SSFYRLRFELRY
B26: Peptide C11 (peptide)
peptide: SSFYRLRFELR
B27: Peptide C12 (peptide)
peptide: SSFYRLRFEL

What follows are binders tested against T1, recombinant human IL-6 (human, UniProt P05231 30-212, labeled with radioactive iodine) (assay: radioiodinated IL-6 on peptide array).
T1 construct: Labeled probe in solution, added to wells that carry the synthetic peptides; also called IL-6 ligand; Interleukin-6
Protocol: Synthetic peptide arrays were constructed in 96-well microtiter plates in accordance with the method set forth in WO 91/02714 (Saxinger), and used to test the binding of recombinant human IL-6 that had been labeled with radioactive iodine (radiolabeling by standard methods). After incubating the radiolabeled IL-6 ligand in a well with each synthetic peptide, a washing step was performed to remove unbound label, and the relative level of radioactivity remaining in each well of the plate was evaluated to determine the relative affinity of each peptide for IL-6 ligand.

Going from B1 to B2, the Counts/minute bound rises from 9760 counts/minute to 11400 counts/minute.

Going from B3 to B4, the Counts/minute bound falls from 13200 counts/minute to 10100 counts/minute.

Going from B5 to B6, the Counts/minute bound falls from 11600 counts/minute to 11100 counts/minute.

Going from B7 to B8, the Counts/minute bound falls from 10800 counts/minute to 4540 counts/minute.

Compared with B9, B10 is higher in Counts/minute bound: 3760 counts/minute for the first, 3840 counts/minute for the second.

Compared with B11, B12 is higher in Counts/minute bound: 7160 counts/minute for the first, 19500 counts/minute for the second.

First: B13
Second: B14
The Counts/minute bound of the first is lower: 7490 counts/minute for the first, 7680 counts/minute for the second.

Going from B15 to B16, the Counts/minute bound rises from 8570 counts/minute to 13800 counts/minute.

Going from B17 to B18, the Counts/minute bound falls from 8210 counts/minute to 7620 counts/minute.

Going from B19 to B20, the Counts/minute bound falls from 4710 counts/minute to 2650 counts/minute.

First: B21
Second: B22
The Counts/minute bound of the first is lower: 1820 counts/minute for the first, 8010 counts/minute for the second.

Going from B23 to B24, the Counts/minute bound falls from 2510 counts/minute to 2170 counts/minute.

Going from B25 to B26, the Counts/minute bound falls from 1350 counts/minute to 1130 counts/minute.

For B27, the Counts/minute bound was 1030 counts/minute.
